US20230331820A1 (GlaxoSmithKline, published 2023)
Read-outs that look alike come from different tables or passages of the source.

Columns and labels:
[1] = biological target: gE WT: HSV2 gE wildtype ectodomain (HSV2, UniProt P89475 21-416); test: ELISA, supernatant
[2] = biological target: T1, gI WT: HSV2 gI wildtype ectodomain (HSV2, UniProt P06764 21-256); test: ELISA, supernatant
[3] = biological target: gEgI mutant (338): HSV2 gEgI mutant heterodimer comprising gE and gI ectodomains with insertion of a (HSV2, UniProt P89475 21-416; P06764 21-256); test: ELISA, supernatant
[4] = biological target: T2, gEgI WT: HSV2 gEgI heterodimer comprising gE and gI wildtype ectodomains (HSV2, UniProt P89475 21-416; P06764 21-256); test: SPR binning; gEgI captured by mAb 5
[5] = biological target: T2, gEgI WT: HSV2 gEgI heterodimer …; test: SPR binning; gEgI captured by mAb 9
[6] = biological target: T2, gEgI WT: HSV2 gEgI heterodimer …; test: SPR binning; gEgI captured by mAb 10
[7] = biological target: T2, gEgI WT: HSV2 gEgI heterodimer …; test: SPR binning; gEgI captured by mAb 15
[8] = biological target: T2, gEgI WT: HSV2 gEgI heterodimer …; test: SPR binning; gEgI captured by mAb 17
[9] = biological target: T2, gEgI WT: HSV2 gEgI heterodimer …; test: SPR binning; gEgI captured by mAb 19
[10] = biological target: T2, gEgI WT: HSV2 gEgI heterodimer …; test: SPR binning; gEgI captured by mAb 20
[11] = biological target: T2, gEgI WT: HSV2 gEgI heterodimer …; test: SPR binning; gEgI captured by mAb 24
[12] = biological target: T2, gEgI WT: HSV2 gEgI heterodimer …; test: SPR binning; gEgI captured by mAb 34
[13] = biological target: T2, gEgI WT: HSV2 gEgI heterodimer …; test: SPR binning; gEgI captured by mAb 39
[14] = biological target: T2, gEgI WT: HSV2 gEgI heterodimer …; test: SPR binning; gEgI captured by mAb 40
[15] = biological target: T2, gEgI WT: HSV2 gEgI heterodimer …; test: SPR binning; gEgI captured by mAb 42
[16] = biological target: T2, gEgI WT: HSV2 gEgI heterodimer …; test: SPR binning; gEgI captured by mAb 45
[17] = biological target: T2, gEgI WT: HSV2 gEgI heterodimer …; test: Biacore SPR, gEgI CHO BMP1181 at 10 µg/ml for 180 s over the mAb
[18] = biological target: T2, gEgI WT: HSV2 gEgI heterodimer …; test: Biacore SPR, gEgI HEK BMP1063 at 10 µg/ml for 180 s over the mAb
[19] = biological target: T1, gI WT: HSV2 gI wildtype ectodomain; test: ELISA, supernatant; remark: listed apart in the source

B1: mAb clone 9 (antibody, V domains shown)
VH: EVQLQQSGPELEKPGASVKISCKASGYSFTGYNMNWVKQSNGKSLEWIGNIDPYYGGTSYNQKFKGKATLTLDKSSSTAYMQLKSLTSEDSAVYYCARSRFITTVVATDYYAMDYWGQGTSVTVSS
VL: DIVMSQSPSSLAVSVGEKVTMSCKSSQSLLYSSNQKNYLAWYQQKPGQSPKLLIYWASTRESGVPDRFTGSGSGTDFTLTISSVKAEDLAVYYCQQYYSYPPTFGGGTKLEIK
B1: no binding [1]; no binding [2]; binds [3]. The RU [4] was 9.4 RU, the RU [5] was -0.4 RU and the RU [6] was 11 RU. For the same binder, the RU [7] was 5.5 RU, the RU [8] was 7.8 RU and the RU [9] was -5.1 RU. It also gave an RU [10] of 4.8 RU, an RU [11] of -0.1 RU and an RU [12] of 0.9 RU. The RU [13] was 9 RU, the RU [14] was 6 RU and the RU [15] was 7 RU. It also gave an RU [16] of 1.8 RU.

B2: mAb clone 17 (antibody, V domains shown)
VH: QVQLKESGPGLVAPSQSLSITCTVSGFSLTSYGVHWVRQPPGKGLEWLGVIWAGGSSNYNSALMSRLSISKDNSKSQVFLKMNSLQTDDTAMYYCARDGYGYVYYAMDYWGQGTSVTVSS
VL: DIVMTQAAPSVPVTPGESVSISCRSSKSLLHSNGNTYLYWFLQRPGQSPQLLIYRMSNLASGVPDRFSGSGSGTAFTLRISRVEAEDVGVYYCMQHLEYPFTFGAGTKLELK
B2: no binding [1]; no binding [2]; binds [3]. It also gave an RU [4] of 0.5 RU, an RU [5] of -0.5 RU and an RU [6] of 4.6 RU. For the same binder, the RU [7] was -6.7 RU, the RU [8] was -8.7 RU and the RU [9] was -6.3 RU. It also gave an RU [10] of 2.2 RU, an RU [11] of -2 RU and an RU [12] of -9.4 RU. The RU [13] was 0.5 RU, the RU [14] was -2.4 RU and the RU [15] was -0.8 RU. For the same binder, the RU [16] was -2.6 RU.

B3: mAb clone 20 (antibody, V domains shown)
VH: QVQLQQSGAELVRPGTSVKVSCKASGYAFTNYLIEWVKQRPGQGLEWIGVINPGSGGTNYNEKFKGKATLTADKSSSTAYMQLSSLTSDDSAVYFCARSHYGNYYAMDYWGQGTSVTVSS
VL: NIVLTQSPASLAVSLGQRATISCRASESVDSYGNSFMHWYQQKPGQPPKLLIYLASNLESGVPARFSGSGSRTDFTLTIDPVEADDAATYYCQQNNEDPWTFGGGTKLEIK
B3: no binding [1]; no binding [2]; binds [3]. For the same binder, the RU [4] was 25.3 RU, the RU [5] was 13 RU and the RU [6] was 32.8 RU. It also gave an RU [7] of 18.5 RU, an RU [8] of 24 RU and an RU [9] of 6.5 RU. It also gave an RU [10] of 9.7 RU, an RU [11] of 7.3 RU and an RU [12] of 13.4 RU. It also gave an RU [13] of 23.8 RU, an RU [14] of 21.3 RU and an RU [15] of 24.5 RU. The RU [16] was 16.4 RU.

B4: mAb clone 15 (antibody, V domains shown)
VH: QVQLKESGPGLVAPSQSLSITCTVSGFSLTSYGVSWVRQPPGKGLEWLGVIWGDGSTNYHSALISRLSISKDNSKSQVFLKLNSLQTDDTATYYCAKPDLYYDSPYAMDYWGQGTSVTVSS
VL: DIQMTQSPASLSASVGETVTITCRASGNIHNYLAWYQQKQGKSPQLLVYNAKTLADGVPSRFSGSGSGTQYSLKINSLQPEDFGSYYCQHFWSTPWTFGGGTKLEIK
B4: no binding [1]; no binding [2]; binds [3]. It also gave an RU [4] of 13.5 RU, an RU [5] of 12.7 RU and an RU [6] of 13.4 RU. For the same binder, the RU [7] was -4.9 RU, the RU [8] was 3.4 RU and the RU [9] was 7.6 RU. It also gave an RU [10] of 13 RU, an RU [11] of 9.9 RU and an RU [12] of 5.9 RU. For the same binder, the RU [13] was 11.7 RU, the RU [14] was 6.9 RU and the RU [15] was 9.8 RU. The RU [16] was 8.7 RU, the “RU Ag/250 RU mAbs” value [17] was 30.4 RU Ag/250 RU mAbs and the “RU Ag/250 RU mAbs” value [18] was 31.5 RU Ag/250 RU mAbs.

B5: mAb clone 10 (antibody, V domains shown)
VH: EVKLVESGGGLVQPGGSLRLSCATSGFTFSDFYMEWVRQPPGKRLEWIAASRNKANDYTTEYSASVKGRFIVSRDTSQSILYLQMNALRAEDTAIYYCARENYGNPAMDYWGQGTSVTVSS
VL: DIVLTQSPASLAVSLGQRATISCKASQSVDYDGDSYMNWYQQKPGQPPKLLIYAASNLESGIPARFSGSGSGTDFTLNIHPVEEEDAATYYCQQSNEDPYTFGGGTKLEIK
B5: no binding [1]; no binding [2]; binds [3]. The RU [4] was 10.6 RU, the RU [5] was 8.3 RU and the RU [6] was 4 RU. It also gave an RU [7] of 3.3 RU, an RU [8] of 8.2 RU and an RU [9] of 2.3 RU. It also gave an RU [10] of 10.8 RU, an RU [11] of 8.2 RU and an RU [12] of 2 RU. The RU [13] was 10.3 RU, the RU [14] was 8.3 RU and the RU [15] was 9.4 RU. It also gave an RU [16] of -2 RU.

B6: mAb clone 5 (antibody, V domains shown)
VH: EVKLVESGGGLVQPGGSLRLSCATSGFTFSDFYMEWVRQPPGKRLEWIAASRNKANDYTTEYSASVKGRFIVSRDTSQSILYLQMNALRAEDTAIYYCARDFLPYYGSPWFAYWGQGTLVTVSA
VL: DIVMTQSPATLSVTPGDRVSLSCRASQSISDYLHWYQQKSHESPRLLIKYASQSISGIPSRFSGSGSGSDFTLSINSVEPEDVGVYYCQNGHSFPYTFGGGTKLEIK
notes: also called mAb 5; GEGI/5IIa
B6: no binding [2].

B7: mAb clone 2 (antibody, V domains shown)
VH: QVQLQQSGAELVRPGTSVKVSCKASGYAFTNYLIEWVKQRPGQGLEWIGVINPGSGGTNYNEKFKGKATLTADKSSSTAYMQLSSLTSDDSAVYFCARSRGYPYAMDYWGQGTSVTVSS
VL: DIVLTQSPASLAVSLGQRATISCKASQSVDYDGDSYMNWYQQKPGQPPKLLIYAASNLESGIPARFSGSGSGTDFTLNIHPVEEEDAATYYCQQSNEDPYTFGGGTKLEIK
B7: no binding [1]; binds [3]; binds [19]. The “RU Ag/250 RU mAbs” value [17] was -1.26 RU Ag/250 RU mAbs and the “RU Ag/250 RU mAbs” value [18] was 1.24 RU Ag/250 RU mAbs.

B8: mAb clone 18 (antibody, V domains shown)
VH: QVQLQQSGAELVRPGTSVKMSCKAAGYTFTNYWIGWVKQRPGHGLEWIGDIYPGGGYTKYNEKFKGKATLTADTSSSTAYMQLSSLTSEDSAIYYCARDGYSPYWGQGTSLTVSS
VL: TIVMTQTPKFLLVSAGDRVTITCKASQSVSNAVAWYQQKPGQSPKLLIYSASNRYTGVPDRFTGSGYGTDFTFTISSVQAEDLAVYFCQQDYTSPFTFGSGTKLEIK
notes: also called mAb 18; mAb18
B8: no binding [19].

B9: mAb clone 3, 21 (antibody, V domains shown)
VH: EVQLQQSGPELVKPGASVKISCKTSGYTFTEYTMHWVKQSHGKSLEWIGGINPNNGGTSYNQKFKGKATLTVDKSSSTAYMELRSLTSEDSAVYYCARSLVEGDFAYWGQGTLVTVSA
VL: DIVLTQSPASLAVSLGQRATISCRASQSVSTSSYSYMHWYQQKPGQPPKLLIKYASNLESGVPARFSGSGSGTDFTLNIHPVEEEDTATYYCQHSWEIPYTFGGGTKLEIK
B9: binds [1]; no binding [2]; binds [3]. The “RU Ag/250 RU mAbs” value [17] was 3.41 RU Ag/250 RU mAbs and the “RU Ag/250 RU mAbs” value [18] was 5.89 RU Ag/250 RU mAbs.

B10: mAb clone 24 (antibody, V domains shown)
VH: EVQLQQSGPELVKPGASVKMSCKASGYTFTDYYMKWVKQSHGKSLEWIGDINPNNGDTFYNQKFKGKATLTVDKSSSTAYMQLNSLTSEDSAVYYCARRGFYYYGSRGGIMDYWGQGTSVTVSS
VL: NIMMTQSPSSLAVSAGEKVTMSCKSSQSVLYSSNQKNYLAWYQQKPGQSPKLLIYWASTRESGVPDRFTGSGSGTDFTLTISSVQAEDLAVYYCHQYLSSYTFGGGTKLEIK
B10: no binding [1]; no binding [2]; binds [3]. The RU [4] was 34.4 RU, the RU [5] was 17 RU and the RU [6] was 39.1 RU. The RU [7] was 42.6 RU, the RU [8] was 32.1 RU and the RU [9] was 13.3 RU. The RU [10] was 17.7 RU, the RU [11] was 6.4 RU and the RU [12] was 20.7 RU. The RU [13] was 30.5 RU, the RU [14] was 28.3 RU and the RU [15] was 30.7 RU. The RU [16] was 26.8 RU.
